Test [1] deals with T1, 인간 BAG2 단백질 (human BAG2 protein) (human, UniProt O95816 2-211).
T1 construct: also called BAG2 폴리펩티드
Description: immunoblot selection of hybridoma clones. Background: In western blotting, separated proteins are transferred to a membrane and probed.

In test [2] the target is T2, GST-Bag Full (GST-융합 전장 BAG2 폴리펩티드) (human, UniProt O95816 1-211).
T2 construct: Expressed in HEK293T cells, detected at about 50 kDa in lysate by immunoblot; also called GST-Bag Full 벡터 발현 산물; not shown: GST tag, about 26 kDa, from pcDNA3.1+/GST vector (NovoPro Bioscience)
Description: immunoblot of lysate of HEK293T cells transfected with GST-Bag Full vector, signal at about 50 kDa.

Test [3] addresses T1, 인간 BAG2 단백질 (human BAG2 protein). Description: immunoblot of MDA-MB-231 cell lysate, antibody from hybridoma culture at 1/2000.

Consider five molecules from patent publication KR20200098338A (dated 2020).

Numbering of substitutions follows the chain as printed.

T2 sequence (O95816 whole entry): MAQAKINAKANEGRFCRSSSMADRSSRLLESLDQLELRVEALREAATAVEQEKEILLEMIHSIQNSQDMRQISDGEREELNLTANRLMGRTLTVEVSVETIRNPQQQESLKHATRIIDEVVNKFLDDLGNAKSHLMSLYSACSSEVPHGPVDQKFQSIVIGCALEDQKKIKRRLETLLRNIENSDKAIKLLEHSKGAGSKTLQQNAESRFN
T1 sequence (O95816 2-211 limits assumed): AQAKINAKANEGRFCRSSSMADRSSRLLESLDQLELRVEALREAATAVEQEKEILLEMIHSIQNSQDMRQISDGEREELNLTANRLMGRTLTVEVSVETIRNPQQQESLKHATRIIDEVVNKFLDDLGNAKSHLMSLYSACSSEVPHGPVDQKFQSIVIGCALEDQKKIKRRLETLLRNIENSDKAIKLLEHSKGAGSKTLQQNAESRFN

B1: 2A11 항체 (항-BAG2 단일클론성 항체) (antibody, V domains shown)
VH: QVQLQQPGAELVRPGASVTLSCKASGYTFTDYEMHWVKQTPVHGLEWIGIIDPETGGTAYNQKFKGKATLTADKSSSTAYMELRSLTSEDSAVYYCTRGKFYYSGRDYAMDYWGQGTSVTVSS
VL: DVLMTQTPLSLPVSLGDQASISCRSSQSIVHSNGNTYLEWYLQKPGQSPKLLIYKVSNRFSGVPDRFSGSGSGTDFTLKISRVEAEDLGVYFCFQGSQVPPTFGGGTKLEIK
notes: Mouse hybridoma monoclonal antibody
With B1, the binding result in test [1] and in test [2] was “binds” each time.

B2: 8C4 항체 (항-BAG2 단일클론성 항체) (antibody, V domains shown)
VH: B1 VH with G56A
VL: B1 VL with I53F
notes: as for B1
With B2, the binding result in test [3] and in test [2] was “binds” each time.

B3: 4C2 항체 (항-BAG2 단일클론성 항체) (antibody, V domains shown)
VH: B1 VH with G57A
VL: B1 VL with I53F
notes: as for B1
With B3, the binding result in test [3] and in test [2] was “binds” each time.

B4: 3G8 항체 (항-BAG2 단일클론성 항체) (antibody, V domains shown)
VH: QIQLVQSGPELKKPGETVKISCKASGYSFTKYGMNWVKQAPGKDIKWMGWINTNTGEATYGEEVKGRFAFSLETSASTAYLQINNLKNEDTATYFCARLGLRYLDYWGQGTTLTVSS
VL: DIVMTQSPASLVVSLGQRATISCRASKSVSTSDYSYMHWYQQKPGQPPKVLIYLASNLESGVPARFSGSGSGTDFTLNIHPVEEEDAATYYCQHNRELPPTFGAGTKLELK
notes: as for B1
In the case of B4, the binding result in test [3] and in test [2] was “binds” in each case.

B5: 3F12 항체 (항-BAG2 단일클론성 항체) (antibody, V domains shown)
VH: QVQLQESGPDLVKPSQSLSLTCTVTGYSITSGYSWHWIRQFPGNKLEWMGYIYYRGSTNYNPSLKSRISITRDTSKNQFFLLLKSVTTEDTATYYCAREAYWGQGTLVTVSA
VL: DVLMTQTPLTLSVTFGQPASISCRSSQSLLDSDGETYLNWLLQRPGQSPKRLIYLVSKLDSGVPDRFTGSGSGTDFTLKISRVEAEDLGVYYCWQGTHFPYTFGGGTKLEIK
notes: as for B1
Consider B5, for which the binding result in test [1] and in test [2] was “binds” each time.
